Measurements published in article PMC3859580, “The PS1 Hairpin of Mcm3 Is Essential for Viability and for DNA Unwinding In Vitro”.

Molecular target: Mcm2-7 complex (wild type) (Saccharomyces cerevisiae, UniProt P29469;P24279;P30665;P29496;P53091;P38132 1-868;1-971;1-933;1-775;1-1017;1-845)
Experiment: EMSA; 5 mM ATP, 10 mM Mg acetate; 50-400 nM complex, 1 nM DNA; shifted band diminished by anti-Mcm7; EMSA: 20 mM Tris-HCl pH 7.5, 10 mM Mg acetate, 100 uM EDTA, 5 mM DTT, 5 mM ATP, 37 C, 10 min; 5% native TBE gel with 5% glycerol, 0.1% NP-40, 10 mM Mg acetate
Settings: protein: recombinant; copies: 1;1;1;1;1;1; label: 5'-32P; single strand

B1: 90-base ssDNA oligonucleotide with (T)60 tail (ssDNA)
DNA: ATGTCCTAGCAAGCCAGAATTCGGCAGCGTCTTTTTTTTTTTTTTTTTTTTTTTTTTTTTTTTTTTTTTTTTTTTTTTTTTTTTTTTTTTT
B1: binds.
